# Measured values: paper PMC10584130, “Effects of HSP70 chaperones Ssa1 and Ssa2 on Ste5 scaffold and the mating mitogen-activated protein kinase (MAPK) pathway in Saccharomyces cerevisiae” (PLOS ONE, 2023)
# T1: Ste5-Myc9 (S. cerevisiae, UniProt P32917 1-917)
# T1 construct: Ste5 MAPK scaffold protein of S. cerevisiae; source: S. cerevisiae (EY1775 ste5 bar1; EY3136/EY3141), expressed from plasmids (pSKM19 2μ; pSKM90), in whole cell extract; not shown: Myc9, C-terminal, kept
# T1 sequence (looked up): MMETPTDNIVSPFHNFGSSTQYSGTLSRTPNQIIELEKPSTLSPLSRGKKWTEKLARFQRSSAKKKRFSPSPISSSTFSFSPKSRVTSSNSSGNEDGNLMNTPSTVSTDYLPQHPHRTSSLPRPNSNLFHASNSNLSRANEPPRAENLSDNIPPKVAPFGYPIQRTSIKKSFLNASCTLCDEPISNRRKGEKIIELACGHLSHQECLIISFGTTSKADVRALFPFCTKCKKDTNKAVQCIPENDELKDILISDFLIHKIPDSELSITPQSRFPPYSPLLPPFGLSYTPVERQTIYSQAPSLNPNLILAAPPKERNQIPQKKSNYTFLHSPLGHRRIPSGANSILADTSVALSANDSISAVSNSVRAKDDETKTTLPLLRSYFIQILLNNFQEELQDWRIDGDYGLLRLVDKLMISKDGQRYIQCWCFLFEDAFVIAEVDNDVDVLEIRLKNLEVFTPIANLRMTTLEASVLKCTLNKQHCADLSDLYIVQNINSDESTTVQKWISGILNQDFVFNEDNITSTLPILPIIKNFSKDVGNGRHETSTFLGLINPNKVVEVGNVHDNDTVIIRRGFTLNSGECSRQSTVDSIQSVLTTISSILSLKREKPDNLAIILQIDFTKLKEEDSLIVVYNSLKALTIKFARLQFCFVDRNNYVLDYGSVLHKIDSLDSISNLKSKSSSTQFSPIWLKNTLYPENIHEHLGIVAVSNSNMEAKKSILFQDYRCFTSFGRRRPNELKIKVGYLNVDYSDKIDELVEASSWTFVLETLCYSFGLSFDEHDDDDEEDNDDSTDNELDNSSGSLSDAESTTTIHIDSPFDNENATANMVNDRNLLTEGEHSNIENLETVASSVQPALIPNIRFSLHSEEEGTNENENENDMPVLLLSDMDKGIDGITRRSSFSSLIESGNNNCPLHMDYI
# B1: Hsp70 Ssa1 (endogenous) (natural protein)
# chain: not shown
# notes: Hsp70 chaperone Ssa1 of S. cerevisiae; also called 70 kDa protein; band a; source: endogenous, S. cerevisiae EY1775 whole cell extract
# Molecular target: T1, Ste5-Myc9
# Assay: affinity purification with mass spectrometry; Ste5-Myc9 IP'd with 9E10 from 10 mg yeast whole cell extract (EY1775, cells without or with 50 nM α factor for 2 hours); 20 mM Tris-HCl pH 7.2, 125 mM potassium acetate, 0.1% Tween 20; Coomassie-stained SDS gel, 70 kDa band digested with trypsin, LC-MS/MS; ImageJ densitometry of the gel
# Conditions: partners not purified
binder,measurement,value
B1,"ratio Ste5-Myc9:70 kDa Hsp70 (Coomassie densitometry), with α factor",0.67
same,"ratio Ste5-Myc9:70 kDa Hsp70 (Coomassie densitometry), without α factor",1.45
